{"source": "paper PMC4250934", "assay_in_all_cases": "AUC", "key": {"[1]": {"molecular_target": "SODA_(BSn5), C-terminal SODA domain of SOD_(BSn5) (Bacillus subtilis BSn5)"}, "[2]": {"molecular_target": "SODA_(NG2215), NTD-deleted form of SOD_(NG2215) (SODA functional domain) (Geobacillus thermodenitrificans NG80-2)"}, "[3]": {"molecular_target": "SOD_(BSn5), Fe/Mn superoxide dismutase from Bacillus subtilis BSn5 (Bacillus subtilis BSn5)"}, "[4]": {"molecular_target": "SOD_(NG2215), Fe/Mn superoxide dismutase (cambialistic SOD) from Geobacillus thermodenitrificans NG80-2 (Geobacillus thermodenitrificans NG80-2)"}}}
{"substance": "SODA_(BSn5), C-terminal SODA domain of SOD_(BSn5) (domain or fragment)", "values": [{"measurement": "stoichiometry N", "setting": "[1]", "result": 2}]}
{"substance": "SODA_(NG2215), NTD-deleted form of SOD_(NG2215) (SODA functional domain) (domain or fragment)", "values": [{"measurement": "stoichiometry N", "setting": "[2]", "result": 4}]}
{"substance": "SOD_(BSn5), Fe/Mn superoxide dismutase from Bacillus subtilis BSn5 (enzyme)", "values": [{"measurement": "stoichiometry N", "setting": "[3]", "result": 2}]}
{"substance": "SOD_(NG2215), Fe/Mn superoxide dismutase (cambialistic SOD) from Geobacillus thermodenitrificans NG80-2 (enzyme)", "values": [{"measurement": "stoichiometry N", "setting": "[4]", "result": 4}]}
